Publication PMC11058270, “Discovering a mitochondrion-localized BAHD acyltransferase involved in calystegine biosynthesis and engineering the production of 3β-tigloyloxytropane” (Nature Communications, 2024)

How the values were obtained:
[1] = system: CN1[C@@H]2CC[C@H]1C[C@H](O)C2; assay: steady-state kinetics, LC-MS product analysis; type: biochemical, Atropa belladonna; settings: acyl donor tigloyl-CoA, 50 mM glycine-NaOH pH 8.6, 30 °C
From the text: (§1) steady-state kinetics, LC-MS product analysis on TS (3β-tigloyloxytropane synthase; AbTS)

[2] = system: CC(C)(COP(=O)(O)OP(=O)(O)OC[C@H]1O[C@@H](n2cnc3c(N)ncnc32)[C@H](O)[C@@H]1OP(=O)(O)O)[C@@H](O)C(=O)NCCC(=O)NCCSC(=O)c1ccccc1; assay: steady-state kinetics, LC-MS product analysis; type: biochemical, Atropa belladonna; settings: co-substrate 3β-tropanol, 50 mM glycine-NaOH pH 8.6, 30 °C
From the text: as §1

[3] = system: C/C=C(\C)C(=O)SCCNC(=O)CCNC(=O)[C@H](O)C(C)(C)COP(=O)(O)OP(=O)(O)OC[C@H]1O[C@@H](n2cnc3c(N)ncnc32)[C@H](O)[C@@H]1OP(=O)(O)O; assay: steady-state kinetics, LC-MS product analysis; type: biochemical, Atropa belladonna; settings: co-substrate 3β-tropanol, 50 mM glycine-NaOH pH 8.6, 30 °C
From the text: as §1

[4] = system: CC(=O)SCCNC(=O)CCNC(=O)[C@H](O)C(C)(C)COP(=O)(O)OP(=O)(O)OC[C@H]1O[C@@H](n2cnc3c(N)ncnc32)[C@H](O)[C@@H]1OP(=O)(O)O; assay: steady-state kinetics, LC-MS product analysis; type: biochemical, Atropa belladonna; settings: co-substrate 3β-tropanol, 50 mM glycine-NaOH pH 8.6, 30 °C
From the text: as §1

[5] = target: T1, PcICS (isobutyryl CoA synthetase) (Pseudomonas chlororaphis, UniProt Q5CD72); assay: enzyme assay, MS detection of tigloyl-CoA; type: biochemical
T1 construct: gene acsA; purified recombinant protein; tag and host for purification not described in main text

[6] = target: T2, TS (3β-tigloyloxytropane synthase; AbTS) (Atropa belladonna, UniProt A0AAF1BX09); assay: steady-state kinetics, LC-MS product analysis; type: biochemical; settings: co-substrate 3β-tropanol; 50 mM glycine-NaOH pH 8.6, 30 °C
T2 construct: full-length codon-optimised CDS (TSopt) in pMAL-c5x, N-terminal MBP tag (cleavage not mentioned), E. coli BL21 (DE3), amylose resin
From the text: as §1

| Compound | Km [1] | kcat [1] | kcat/Km [1] | Km [2] | kcat [2] | kcat/Km [2] | Km [3] | kcat [3] | kcat/Km [3] | further results |
| --- | --- | --- | --- | --- | --- | --- | --- | --- | --- | --- |
| TS (3β-tigloyloxytropane synthase; AbTS) (Atropa belladonna; F46I) | 320 ± 60 µM | 1.44 ± 0.09 s⁻¹ | 4550 ± 594 M⁻¹ s⁻¹ | 370 ± 90 µM | 0.04 ± 0.004 s⁻¹ | 99.3 ± 13.3 M⁻¹ s⁻¹ | 410 ± 110 µM | 1.42 ± 0.17 s⁻¹ | 3590 ± 570 M⁻¹ s⁻¹ | Km [4]: 350 ± 120 µM; kcat [4]: 0.005 ± 0.0008 s⁻¹; kcat/Km [4]: 16.2 ± 3.42 M⁻¹ s⁻¹ |
| TS (3β-tigloyloxytropane synthase; AbTS) (Atropa belladonna) | 360 ± 50 µM | 6.84 ± 0.3 s⁻¹ | 19000 ± 1660 M⁻¹ s⁻¹ |  |  |  | 20 ± 4 µM | 7.38 ± 0.25 s⁻¹ | 338000 ± 49100 M⁻¹ s⁻¹ |  |
| TS (3β-tigloyloxytropane synthase; AbTS) (Atropa belladonna; F46I/S40T) |  |  |  | 260 ± 80 µM | 0.08 ± 0.008 s⁻¹ | 305 ± 54.1 M⁻¹ s⁻¹ | 150 ± 20 µM | 2.27 ± 0.1 s⁻¹ | 14800 ± 1370 M⁻¹ s⁻¹ |  |
| C/C=C(\C)C(=O)O [tiglic acid] |  |  |  |  |  |  |  |  |  | enzyme assay, MS detection of tigloyl-CoA ([5]; co-substrate CoA): purified PcICS catalyzed the synthesis of tigloyl-CoA from CoA and tiglic acid |
| CC(C)(COP(=O)(O)OP(=O)(O)OC[C@H]1O[C@@H](n2cnc3c(N)ncnc32)[C@H](O)[C@@H]1OP(=O)(O)O)[C@@H](O)C(=O)NCCC(=O)NCCS [CoA] |  |  |  |  |  |  |  |  |  | enzyme assay, MS detection of tigloyl-CoA ([5]; co-substrate tiglic acid): purified PcICS catalyzed the synthesis of tigloyl-CoA from CoA and tiglic acid |
| TS (3β-tigloyloxytropane synthase; AbTS) (Atropa belladonna; S40T) | 320 ± 70 µM | 11.1 ± 0.81 s⁻¹ | 35200 ± 5480 M⁻¹ s⁻¹ | 840 ± 380 µM | 0.03 ± 0.006 s⁻¹ | 32.7 ± 6.77 M⁻¹ s⁻¹ | 20 ± 3 µM | 11.4 ± 0.34 s⁻¹ | 572000 ± 72300 M⁻¹ s⁻¹ | Km [4]: 70 ± 10 µM; kcat [4]: 0.09 ± 0.004 s⁻¹; kcat/Km [4]: 1190 ± 155 M⁻¹ s⁻¹ |
| CC(=O)SCCNC(=O)CCNC(=O)[C@H](O)C(C)(C)COP(=O)(O)OP(=O)(O)OC[C@H]1O[C@@H](n2cnc3c(N)ncnc32)[C@H](O)[C@@H]1OP(=O)(O)O [acetyl-CoA] |  |  |  |  |  |  |  |  |  | Km [6]: 90 ± 20 µM |
| CC(C)(COP(=O)(O)OP(=O)(O)OC[C@H]1O[C@@H](n2cnc3c(N)ncnc32)[C@H](O)[C@@H]1OP(=O)(O)O)[C@@H](O)C(=O)NCCC(=O)NCCSC(=O)c1ccccc1 [benzoyl-CoA] |  |  |  |  |  |  |  |  |  | Km [6]: 920 ± 580 µM |
